From US20160297892A1 (Novo Nordisk, published 2016)

T1: human Protein S (plasma derived) (human, UniProt P07225 42-676)
T1 construct: Bought plasma-derived human Protein S (Haematologic Technologies or Enzyme Research Laboratories); also called Plasma PS; free Protein S
T1 sequence: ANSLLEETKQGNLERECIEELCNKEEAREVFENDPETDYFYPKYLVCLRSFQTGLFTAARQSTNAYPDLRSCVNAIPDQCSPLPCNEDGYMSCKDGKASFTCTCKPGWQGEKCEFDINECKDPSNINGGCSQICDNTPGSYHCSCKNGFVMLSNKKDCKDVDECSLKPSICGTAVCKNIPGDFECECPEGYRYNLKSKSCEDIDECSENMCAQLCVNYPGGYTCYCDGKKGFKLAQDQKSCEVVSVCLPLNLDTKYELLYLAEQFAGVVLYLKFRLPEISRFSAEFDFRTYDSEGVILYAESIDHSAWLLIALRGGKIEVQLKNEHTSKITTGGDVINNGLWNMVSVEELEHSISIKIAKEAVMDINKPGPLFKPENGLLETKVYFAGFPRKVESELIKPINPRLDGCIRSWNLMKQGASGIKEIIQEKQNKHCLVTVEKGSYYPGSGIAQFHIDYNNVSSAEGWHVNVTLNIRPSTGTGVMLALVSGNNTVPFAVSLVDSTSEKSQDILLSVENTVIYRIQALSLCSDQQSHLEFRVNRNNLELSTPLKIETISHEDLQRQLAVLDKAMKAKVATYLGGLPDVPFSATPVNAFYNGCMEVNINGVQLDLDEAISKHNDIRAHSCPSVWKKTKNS

T2: Gla-domain deleted recombinant human Protein S (human, UniProt P07225 114-676)
T2 construct: also called hPS-dGla; desGla human Protein S
T2 sequence: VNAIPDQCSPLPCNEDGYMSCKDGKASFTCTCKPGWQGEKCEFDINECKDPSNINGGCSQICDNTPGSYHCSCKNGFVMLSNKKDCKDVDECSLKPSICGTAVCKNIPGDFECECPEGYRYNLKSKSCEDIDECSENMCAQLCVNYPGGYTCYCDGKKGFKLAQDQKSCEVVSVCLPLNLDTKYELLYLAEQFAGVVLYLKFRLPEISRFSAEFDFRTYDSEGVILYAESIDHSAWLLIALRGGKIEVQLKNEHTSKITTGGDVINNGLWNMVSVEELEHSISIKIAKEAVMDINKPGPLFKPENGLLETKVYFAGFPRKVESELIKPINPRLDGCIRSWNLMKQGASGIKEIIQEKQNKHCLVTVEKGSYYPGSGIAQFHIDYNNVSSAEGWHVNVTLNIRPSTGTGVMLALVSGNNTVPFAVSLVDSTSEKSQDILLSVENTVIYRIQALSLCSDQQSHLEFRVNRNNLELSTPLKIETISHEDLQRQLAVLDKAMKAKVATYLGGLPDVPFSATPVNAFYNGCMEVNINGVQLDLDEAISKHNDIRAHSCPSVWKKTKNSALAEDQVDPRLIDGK

T3: EGF domain 1 and 2 of recombinant human Protein S (human, UniProt P07225 114-200, limits assumed)
T3 construct: domain: EGF domain 1 and 2; also called hEGF1-2
T3 sequence (looked up): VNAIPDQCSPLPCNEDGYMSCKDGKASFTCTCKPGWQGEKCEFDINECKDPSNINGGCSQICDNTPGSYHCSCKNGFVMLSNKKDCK

T4: EGF1-4 domains of human Protein S with C-terminal HPC4 tag (human, UniProt P07225 114-286, partial hydroxylation of Asn or Asp in the EGF domains (detected by MS))
T4 construct: also called hEGF1-4; human Protein S EGF1-4
T4 sequence: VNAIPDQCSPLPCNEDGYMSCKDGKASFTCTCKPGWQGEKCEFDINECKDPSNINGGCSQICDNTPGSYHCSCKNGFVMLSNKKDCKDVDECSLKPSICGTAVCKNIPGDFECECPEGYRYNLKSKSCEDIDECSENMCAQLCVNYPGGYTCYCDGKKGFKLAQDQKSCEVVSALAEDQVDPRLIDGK

B1: 0322-0000-1069 (murine-human IgG4 chimer) (antibody, V domains shown)
VH: QVQLQQPGAELVRPGASVKLSCKASGYTFTSYWINWVKQRPEQGLEWIGRIDPYDSETHYNQKFKDKAILTVDKSSSTAYMQLSSLTSEDSAVYYCARWGGSGYAMDYWGQGTSVTVSS
VL: QIVLSQSPAILSASPGEKVTMTCRASSSVSYMYWYQQKPGSSPKPWIYATSNLASGVPARFSGSGSGTSYSLTISRVEAEDAATYYCQQWSSIPPTFGGGTKLEIKR
notes: Mouse variable domains on human IgG4(S241P) / human kappa constant regions
B2: M-hProtS-6F230A10 monoclonal antibody (antibody, mouse IgG1, V domains shown)
VH: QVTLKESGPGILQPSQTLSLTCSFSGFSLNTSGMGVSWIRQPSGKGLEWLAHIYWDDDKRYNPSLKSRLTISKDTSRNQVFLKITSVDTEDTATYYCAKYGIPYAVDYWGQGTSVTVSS
VL: QIVLTQSPAIMSASPGEKVTMTCSASSSVSYMYWYQQKPGSSPRLLIYDTSNLASGVPVRFSGSGSGTSYSLTISRMEAEDAATYYCQQWSSYPLTFGAGTKLELKR

Assays:
[1] = target: T1, human Protein S (plasma derived); assay: SPR; protein S binding to the full length antibody
[2] = target: T2, Gla-domain deleted recombinant human …; assay: ELISA, recombinant antibody
[3] = target: T3, EGF domain 1 and 2 of recombinant human …; assay: ELISA, recombinant antibody
[4] = target: T4, EGF1-4 domains of human Protein S with …; assay: ELISA, recombinant antibody
[5] = target: T1, human Protein S (plasma derived); assay: ELISA, recombinant antibody

Binder | Kd [1] [nM] | binding result [2] | binding result [3] | binding result [4] | binding result [5]
B1 | 20 | – | – | – | –
B2 | – | binds | no binding | binds | binds
